T1: B42-FtsZ fusion (pB42-FtsZ, SHp256) (Escherichia coli, UniProt P0A9A6 1-383)
T1 construct: Yeast two-hybrid prey; entire FtsZ gene cloned into pB42
T1 sequence: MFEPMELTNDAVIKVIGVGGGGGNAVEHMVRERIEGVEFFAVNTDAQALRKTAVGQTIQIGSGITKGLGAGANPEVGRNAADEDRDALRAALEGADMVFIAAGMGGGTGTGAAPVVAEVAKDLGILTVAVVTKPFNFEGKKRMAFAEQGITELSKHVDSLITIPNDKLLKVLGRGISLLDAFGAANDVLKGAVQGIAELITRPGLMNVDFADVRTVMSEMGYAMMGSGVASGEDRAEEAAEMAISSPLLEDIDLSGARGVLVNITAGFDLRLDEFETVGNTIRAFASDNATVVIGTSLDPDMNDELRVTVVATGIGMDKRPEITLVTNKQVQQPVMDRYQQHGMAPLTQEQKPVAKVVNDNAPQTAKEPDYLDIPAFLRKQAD

T2: Gal4ad-FtsA fusion (UniProt P0ABH0 1-420)
T2 sequence: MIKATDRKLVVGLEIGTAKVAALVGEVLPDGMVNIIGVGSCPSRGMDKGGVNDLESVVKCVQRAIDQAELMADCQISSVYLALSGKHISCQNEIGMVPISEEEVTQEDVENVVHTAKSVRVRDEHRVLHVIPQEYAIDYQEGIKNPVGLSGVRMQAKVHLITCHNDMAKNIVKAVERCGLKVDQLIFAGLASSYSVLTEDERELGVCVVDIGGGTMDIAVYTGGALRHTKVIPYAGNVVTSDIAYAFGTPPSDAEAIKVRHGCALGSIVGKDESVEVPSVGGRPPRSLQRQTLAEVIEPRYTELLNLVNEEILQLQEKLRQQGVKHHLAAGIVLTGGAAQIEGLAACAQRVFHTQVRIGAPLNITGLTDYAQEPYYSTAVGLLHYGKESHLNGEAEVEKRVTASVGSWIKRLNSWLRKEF

T3: Gal4 activation domain alone (pGAD424 vector, no fusion) (UniProt P04386 768-881)
T3 sequence (looked up): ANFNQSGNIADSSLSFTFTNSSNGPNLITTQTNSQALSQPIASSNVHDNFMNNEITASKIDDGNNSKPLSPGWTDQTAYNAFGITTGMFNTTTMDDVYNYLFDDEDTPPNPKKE

B1: LexA-OrfE fusion (kil as a fusion to the LexA DNA-binding protein) (other)
chain: MKALTARQQEVFDLIRDHISQTGMPPTRAEIAQRLGFRSPNAAEEHLKALARKGVIEIVSGASRGIRLLQEEEEGLPLVGRVAAGEPLLAQQHIEGHYQVDPSLFKPNADFLLRVSGMSMKDIGIMDGDLLAVHKTQDVRNGQVVVARIDDEVTVKRLKKQGNKVELLPENSEFKPIVVDLRQQSFTIEGLAVGVIRNGDWLMIAHHFGTDEIPRQCVTPGDYVLHEGRTYIASANNIKKRKLYIRNLTTKTFITDRMIKVFLGRDGLPVKAESW
B2: LexA alone (pLexA vector, SHp40) (other)
chain: MKALTARQQEVFDLIRDHISQTGMPPTRAEIAQRLGFRSPNAAEEHLKALARKGVIEIVSGASRGIRLLQEEEEGLPLVGRVAAGEPLLAQQHIEGHYQVDPSLFKPNADFLLRVSGMSMKDIGIMDGDLLAVHKTQDVRNGQVVVARIDDEVTVKRLKKQGNKVELLPENSEFKPIVVDLRQQSFTIEGLAVGVIRNGDWL
B3: Gal4bd-OrfE fusion (pAS2-1 fusion of kil) (other)
chain: MKLLSSIEQACDICRLKKLKCSKEKPKCAKCLKNNWECRYSPKTKRSPLTRAHLTEVESRLERLEQLFLLIFPREDLDMILKMDSLQDIKALLTGLFVQDNVNKDAVTDRLASVETDMPLTLRQHRISATSSSEESSNKGQRQLTVSMIAHHFGTDEIPRQCVTPGDYVLHEGRTYIASANNIKKRKLYIRNLTTKTFITDRMIKVFLGRDGLPVKAESW
notes: also called Gal4bd-Kil
B4: Gal4bd-FtsZ(311-383) fusion (pAS2-1-FtsZ(311-383), SHp102) (other)
chain: MKLLSSIEQACDICRLKKLKCSKEKPKCAKCLKNNWECRYSPKTKRSPLTRAHLTEVESRLERLEQLFLLIFPREDLDMILKMDSLQDIKALLTGLFVQDNVNKDAVTDRLASVETDMPLTLRQHRISATSSSEESSNKGQRQLTVSVATGIGMDKRPEITLVTNKQVQQPVMDRYQQHGMAPLTQEQKPVAKVVNDNAPQTAKEPDYLDIPAFLRKQAD

Columns and labels:
[1] = biological target: T1, B42-FtsZ fusion (pB42-FtsZ, SHp256); assay: yeast two-hybrid (LexA fusion x B42 fusion), growth on plates without histidine
[2] = biological target: T1, B42-FtsZ fusion (pB42-FtsZ, SHp256); assay: yeast two-hybrid (LexA/B42), LEU2 and lacZ reporters, haploids and diploids
Gal4ad-FtsA fusion = biological target: T2, Gal4ad-FtsA fusion; assay: yeast two-hybrid, Gal4 system
[3] = biological target: T3, Gal4 activation domain alone (pGAD424 …); assay: cell-based or functional assay
[4] = biological target: Gal4ad-ZipA(35-284) fusion (pGAD424 fusion) (Escherichia coli); assay: cell-based or functional assay
[5] = biological target: Gal4ad-ZipA(185-328) fusion (pGAD424 fusion) (Escherichia coli, UniProt P77173 185-328); assay: cell-based or functional assay
[6] = biological target: Gal4ad-ZipA(62-328) fusion (pGAD424 fusion) (Escherichia coli); assay: cell-based or functional assay
[7] = biological target: Gal4ad-ZipA(185-302) fusion (pGAD424 fusion) (Escherichia coli); assay: cell-based or functional assay
[8] = biological target: Gal4ad-ZipA(35-185) fusion (pGAD424 fusion) (Escherichia coli); assay: cell-based or functional assay

Row | Binder | binding result [1] | binding result [2] | binding result (Gal4ad-FtsA fusion) | beta-galactosidase (lacZ reporter) activity, MUG fluorescence, yeast two-hybrid [3] | beta-galactosidase (lacZ reporter) activity, MUG fluorescence, yeast two-hybrid [4] | beta-galactosidase (lacZ reporter) activity, MUG fluorescence, yeast two-hybrid [5] | beta-galactosidase (lacZ reporter) activity, MUG fluorescence, yeast two-hybrid [6] | beta-galactosidase (lacZ reporter) activity, MUG fluorescence, yeast two-hybrid [7] | beta-galactosidase (lacZ reporter) activity, MUG fluorescence, yeast two-hybrid [8]
1 | B1 | no binding | – | – | – | – | – | – | – | –
2 | B2 | – | no binding | – | – | – | – | – | – | –
3 | B3 | – | – | no binding | 1230 units | 7580 units | 1910 units | 8530 units | 721 units | 1140 units
4 | B4 | – | – | – | 997 units | 8620 units | 2630 units | 7430 units | 828 units | 971 units

Reference: US20030078191A1 (published 2003)
